We go through 32 molecules from US20250223280A1.

Bridges are numbered along the chain shown (N, C = ends). [ ]: non-standard residue; d: D form. Pro(4S-NH2) = N[C@@H]1CN[C@H](C(=O)O)C1

One may read the Kd as the constant that tells how readily two partners part at equilibrium. Low values mean a tighter complex, high ones a looser complex.

Sequences and labels used below:
B1: Compound 69 (peptide)
peptide: cyclo(PDCAWHLGELVWCT[dP])
modifications: disulfide 3-13; not fully specified (residue 1); also: conjugate from starting material A141
B2: Compound 62 (peptide)
peptide: cyclo(PDCAWHLGELVWCT[dP])
modifications: disulfide 3-13; not fully specified (residue 1); also: conjugate from acid A32
B3: Intermediate 13 (peptide)
peptide: cyclo([Pro(4S-NH2)]NCAWHLGELVWCT[dP])
modifications: disulfide 3-13
SMILES: CC(C)C[C@@H]1NC(=O)[C@H](Cc2c[nH]cn2)NC(=O)[C@H](Cc2c[nH]c3ccccc23)NC(=O)[C@H](C)NC(=O)[C@@H]2CSSC[C@H](NC(=O)[C@H](Cc3c[nH]c4ccccc34)NC(=O)[C@H](C(C)C)NC(=O)[C@H](CC(C)C)NC(=O)[C@H](CCC(=O)O)NC(=O)CNC1=O)C(=O)N[C@@H]([C@@H](C)O)C(=O)N1CCC[C@@H]1C(=O)N1C[C@@H](N)C[C@H]1C(=O)N[C@@H](CC(N)=O)C(=O)N2
B4: Compound 95 (peptide)
peptide: cyclo(PDCAWHLGELVWCT[dP])
modifications: disulfide 3-13; not fully specified (residue 1); also: 4-amino group of residue 1 acylated with linker to ASGPR ligands
B5: Intermediate 12 (peptide)
peptide: cyclo([Pro(4S-NH2)]ACAWHLGELVWCT[dP])
modifications: disulfide 3-13
SMILES: CC(C)C[C@@H]1NC(=O)[C@H](Cc2c[nH]cn2)NC(=O)[C@H](Cc2c[nH]c3ccccc23)NC(=O)[C@H](C)NC(=O)[C@@H]2CSSC[C@H](NC(=O)[C@H](Cc3c[nH]c4ccccc34)NC(=O)[C@H](C(C)C)NC(=O)[C@H](CC(C)C)NC(=O)[C@H](CCC(=O)O)NC(=O)CNC1=O)C(=O)N[C@@H]([C@@H](C)O)C(=O)N1CCC[C@@H]1C(=O)N1C[C@@H](N)C[C@H]1C(=O)N[C@@H](C)C(=O)N2
B6: Compound 63 (peptide)
peptide: cyclo(PDCAWHLGELVWCT[dP])
modifications: disulfide 3-13; not fully specified (residue 1); also: conjugate from starting material A40
B7: Intermediate 8 (peptide)
peptide: PDCAWHLGELVWCTP
modifications: residue 1 = (2S,4S)-4-aminoproline; residue 15 = D-Pro; backbone cyclised head to tail; disulfide Cys3-Cys13; 4-amino group of residue 1 acylated (linker only in a drawing; the mass fits hex-5-ynoyl)
B8: Intermediate 31 (peptide)
peptide: cyclo(PD[(S)‑2‑aminohex‑5‑enoic acid]AWHLGELVW[(S)‑2‑aminopent‑4‑enoic acid]T[dP])
modifications: staple 3-13
B9: Intermediate 14 (peptide)
peptide: cyclo([Pro(4S-NH2)]DCSWHLGELVWCT[dP])
modifications: disulfide 3-13
SMILES: CC(C)C[C@@H]1NC(=O)[C@H](Cc2c[nH]cn2)NC(=O)[C@H](Cc2c[nH]c3ccccc23)NC(=O)[C@H](CO)NC(=O)[C@@H]2CSSC[C@H](NC(=O)[C@H](Cc3c[nH]c4ccccc34)NC(=O)[C@H](C(C)C)NC(=O)[C@H](CC(C)C)NC(=O)[C@H](CCC(=O)O)NC(=O)CNC1=O)C(=O)N[C@@H]([C@@H](C)O)C(=O)N1CCC[C@@H]1C(=O)N1C[C@@H](N)C[C@H]1C(=O)N[C@@H](CC(=O)O)C(=O)N2
B10: Compound 53 (peptide)
peptide: cyclo(PDCAWHLGELVWCT[dP])
modifications: disulfide 3-13; not fully specified (residue 1); also: conjugate: hex-5-ynoyl peptide clicked to azide A18
B11: Compound 85 (peptide)
peptide: PDCAWHLGELVWCTP
modifications: residue 1 = (2S,4S)-4-aminoproline; residue 15 = D-Pro; backbone cyclised head to tail; disulfide Cys3-Cys13; 4-amino group of residue 1 acylated with the linker to the sugar ligands
B12: Compound 61 (peptide)
peptide: cyclo(PDCAWHLGELVWCT[dP])
modifications: disulfide 3-13; not fully specified (residue 1); also: conjugate: Intermediate 11 acylated with phenoxyacetic acid TFP ester carrying one 6-(trifluoromethyl)pyrazin-2-ylamino sugar
B13: Intermediate 4 (peptide)
peptide: PDCAWHLGELVWCTP
modifications: residue 1 = (2S,4S)-4-aminoproline; residue 15 = D-Pro; backbone cyclised head to tail; disulfide Cys3-Cys13; 4-amino group of residue 1 acylated with PEG4-propanoyl capped by hex-5-ynamide
B14: Compound 67 (peptide)
peptide: cyclo(PDCAWHLGELVWCT[dP])
modifications: disulfide 3-13; not fully specified (residue 1); also: conjugate from starting material A139
B15: Compound 72 (peptide)
peptide: cyclo(PDCAWHLGELVWCT[dP])
modifications: disulfide 3-13; not fully specified (residue 1); also: conjugate from starting material A144
B16: Compound 68 (peptide)
peptide: cyclo(PDCAWHLGELVWCT[dP])
modifications: disulfide 3-13; not fully specified (residue 1); also: 4-amino of residue 1 acylated with 4-(4-((4-(sugar-methyl)piperazin-1-yl)methyl)piperidin-1-yl)benzoic acid linker to ASGPR ligand (A140), one 6-(trifluoromethyl)pyrazin-2-ylamino sugar
B17: Intermediate 30 (peptide)
peptide: cyclo(PDCAWHLGELVWCT[dP])
modifications: disulfide 3-13; not fully specified (residue 1)
B18: Compound 66 (peptide)
peptide: cyclo(PDCAWHLGELVWCT[dP])
modifications: disulfide 3-13; not fully specified (residue 1); also: conjugate from starting material A138
B19: Compound 65 (peptide)
peptide: cyclo(PDCAWHLGELVWCT[dP])
modifications: disulfide 3-13; not fully specified (residue 1); also: conjugate from starting material A137, ligand number not given here
B20: Compound 91 (peptide)
peptide: PDCAWHLGELVWCTP
modifications: not fully specified; residue 1 = (2S,4R)-4-aminoproline; residue 15 = D-Pro; backbone cyclised head to tail; disulfide Cys3-Cys13; 4-amino group of residue 1 acylated with the linker to the ASGPR ligand
B21: Compound 86 (peptide)
peptide: PDCAWHLGELVWCTP
modifications: residue 1 = (2S,4S)-4-aminoproline; residue 15 = D-Pro; backbone cyclised head to tail; disulfide Cys3-Cys13; 4-amino group of residue 1 acylated with the linker to the sugar ligands
B22: Compound 64 (peptide)
peptide: cyclo(PDCAWHLGELVWCT[dP])
modifications: disulfide 3-13; not fully specified (residue 1); also: conjugate from starting material A125
B23: Compound 80 (peptide)
peptide: PDCAWHLGELVWCTP
modifications: not fully specified; residue 1 = (2S,4S)-4-aminoproline; residue 15 = D-Pro; backbone cyclised head to tail; disulfide Cys3-Cys13; 4-amino group of residue 1 acylated with the butanoyl-triazole linker to the ASGPR ligand
B24: Compound 51 (peptide)
peptide: cyclo(PDCAWHLGELVWCT[dP])
modifications: disulfide 3-13; not fully specified (residue 1); also: conjugate: hex-5-ynoyl peptide (Intermediate 48) clicked to one 6-(trifluoromethyl)pyrazin-2-ylamino sugar azide
B25: Compound 92 (peptide)
peptide: cyclo(PDCAWHLGELVWCT[dP])
modifications: disulfide 3-13; not fully specified (residue 1); also: linker and ASGPR ligand(s) not given here
B26: Compound 94 (peptide)
peptide: cyclo(PDCAWHLGELVWCT[dP])
modifications: disulfide 3-13; not fully specified (residue 1); also: 4-amino group of residue 1 acylated with linker to ASGPR ligands
B27: Compound 84 (peptide)
peptide: PDCAWHLGELVWCTP
modifications: residue 1 = (2S,4S)-4-aminoproline; residue 15 = D-Pro; backbone cyclised head to tail; disulfide Cys3-Cys13; 4-amino group of residue 1 acylated with the linker to the sugar ligands
B28: Intermediate 6 (peptide)
peptide: PDCAWHLGELVWCTP
modifications: residue 1 = (2S,4S)-4-aminoproline; residue 15 = D-Pro; backbone cyclised head to tail; disulfide Cys3-Cys13; 4-amino group of residue 1 acylated with PEG2-propanoyl capped by hex-5-ynamide
B29: Intermediate 7 (peptide)
peptide: PDCAWHLGELVWCTP
modifications: residue 1 = (2S,4S)-4-aminoproline; residue 15 = D-Pro; backbone cyclised head to tail; disulfide Cys3-Cys13; 4-amino group of residue 1 acylated with 3-(2-(hex-5-ynamido)ethoxy)propanoyl
B30: Intermediate 5 (peptide)
peptide: PDCAWHLGELVWCTP
modifications: residue 1 = (2S,4S)-4-aminoproline (free 4-amino group); residue 15 = D-Pro; backbone cyclised head to tail; disulfide Cys3-Cys13
B31: Intermediate 9 (peptide)
peptide: cyclo(PDCAWHLGELVWCT[dP])
modifications: disulfide 3-13; not fully specified (residue 1)
B32: Compound 52 (peptide)
peptide: cyclo(PDCAWHLGELVWCT[dP])
modifications: disulfide 3-13; not fully specified (residue 1); also: conjugate: hex-5-ynoyl peptide clicked to azide A2

The target in one assay is IgG. Kind of assay: SPR, IgG immobilised on CM5 chip, compound as analyte; value from the legend of the grade (**** = Kd <100 nM). Background: In SPR one partner is held on a chip, and binding of the other changes the refractive index at the surface.
B1 came in with an equilibrium dissociation constant (Kd) of less than 100 nM. The same measure, in the same setting: next, B2: less than 100 nM; B3: less than 100 nM; B4: less than 100 nM.

With B5, the Kd was less than 100 nM.

Consider B6, for which the dissociation constant Kd was less than 100 nM.

In the case of B7, the Kd is less than 100 nM.

Take B8: the Kd is less than 100 nM. Regarding B9, the Kd is less than 100 nM.

Molecule B10 came in with a Kd of less than 100 nM. The same measure, in the same setting: then B11, with less than 100 nM; and B12, with less than 100 nM.

Regarding B13, the Kd was less than 100 nM. On the same count and under the same terms, then B14, with less than 100 nM; and B15, with less than 100 nM; and B16, with less than 100 nM.

With B17, the Kd was less than 100 nM.

Molecule B18 returned a Kd of less than 100 nM. The same measure, in the same setting: then B19, with less than 100 nM; and B20, with less than 100 nM; and B21, with less than 100 nM. In turn, B22 had a Kd of less than 100 nM. Same read-out and setting: then B23, with less than 100 nM; and B24, with less than 100 nM. Still for that read-out and setting: next, B25: less than 100 nM; B26: less than 100 nM.

Take B27: the Kd was less than 100 nM.

The target of another assay is IgG. In words: SPR, IgG immobilised on CM5 chip, compound as analyte; value from the legend of the grade (++++ = Kd <100 nM).
B28 gave a Kd of less than 100 nM.

B3 returned a Kd of less than 100 nM. Same read-out and setting: next, B5: less than 100 nM. On to B29, for which the Kd is less than 100 nM. Still for that read-out and setting: next, B10: less than 100 nM; B30: less than 100 nM; B13: less than 100 nM. The same measure, in the same setting: next, B31: less than 100 nM; B32: less than 100 nM.
